pKd: −log10 of the molar value.
Legend:
Experiment in all cases: FP filter
[1] = test system: TZ05 DNA polymerase (Thermus species Z05); details: 55C
[2] = molecular target: Tth DNA polymerase (Thermus thermophilus) (UniProt P52028)
[3] = molecular target: Taq DNA polymerase (Thermus aquaticus) (UniProt P19821)
Sequence of Taq DNA polymerase (Thermus aquaticus) (P19821 whole entry): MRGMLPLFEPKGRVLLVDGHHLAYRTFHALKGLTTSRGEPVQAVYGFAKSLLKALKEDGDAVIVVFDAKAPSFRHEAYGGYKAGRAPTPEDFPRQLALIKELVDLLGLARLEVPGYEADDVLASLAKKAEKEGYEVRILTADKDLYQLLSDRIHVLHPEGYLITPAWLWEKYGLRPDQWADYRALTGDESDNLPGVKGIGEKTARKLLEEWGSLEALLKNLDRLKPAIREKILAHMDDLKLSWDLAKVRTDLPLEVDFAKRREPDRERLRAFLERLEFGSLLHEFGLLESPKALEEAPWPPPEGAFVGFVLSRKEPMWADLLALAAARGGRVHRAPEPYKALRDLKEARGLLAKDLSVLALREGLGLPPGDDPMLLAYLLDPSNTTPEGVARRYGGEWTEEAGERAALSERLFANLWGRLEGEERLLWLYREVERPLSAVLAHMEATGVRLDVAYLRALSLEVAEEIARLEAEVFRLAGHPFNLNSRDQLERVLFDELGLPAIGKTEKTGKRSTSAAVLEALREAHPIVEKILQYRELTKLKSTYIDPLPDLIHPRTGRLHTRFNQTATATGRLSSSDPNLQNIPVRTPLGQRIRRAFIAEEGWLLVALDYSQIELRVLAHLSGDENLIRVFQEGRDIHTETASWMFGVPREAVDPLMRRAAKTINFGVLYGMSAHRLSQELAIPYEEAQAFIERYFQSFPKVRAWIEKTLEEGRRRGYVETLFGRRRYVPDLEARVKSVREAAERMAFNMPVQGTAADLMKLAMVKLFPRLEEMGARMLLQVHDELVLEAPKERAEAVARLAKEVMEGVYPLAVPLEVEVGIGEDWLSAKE

Sequence of Tth DNA polymerase (Thermus thermophilus) (P52028 whole entry): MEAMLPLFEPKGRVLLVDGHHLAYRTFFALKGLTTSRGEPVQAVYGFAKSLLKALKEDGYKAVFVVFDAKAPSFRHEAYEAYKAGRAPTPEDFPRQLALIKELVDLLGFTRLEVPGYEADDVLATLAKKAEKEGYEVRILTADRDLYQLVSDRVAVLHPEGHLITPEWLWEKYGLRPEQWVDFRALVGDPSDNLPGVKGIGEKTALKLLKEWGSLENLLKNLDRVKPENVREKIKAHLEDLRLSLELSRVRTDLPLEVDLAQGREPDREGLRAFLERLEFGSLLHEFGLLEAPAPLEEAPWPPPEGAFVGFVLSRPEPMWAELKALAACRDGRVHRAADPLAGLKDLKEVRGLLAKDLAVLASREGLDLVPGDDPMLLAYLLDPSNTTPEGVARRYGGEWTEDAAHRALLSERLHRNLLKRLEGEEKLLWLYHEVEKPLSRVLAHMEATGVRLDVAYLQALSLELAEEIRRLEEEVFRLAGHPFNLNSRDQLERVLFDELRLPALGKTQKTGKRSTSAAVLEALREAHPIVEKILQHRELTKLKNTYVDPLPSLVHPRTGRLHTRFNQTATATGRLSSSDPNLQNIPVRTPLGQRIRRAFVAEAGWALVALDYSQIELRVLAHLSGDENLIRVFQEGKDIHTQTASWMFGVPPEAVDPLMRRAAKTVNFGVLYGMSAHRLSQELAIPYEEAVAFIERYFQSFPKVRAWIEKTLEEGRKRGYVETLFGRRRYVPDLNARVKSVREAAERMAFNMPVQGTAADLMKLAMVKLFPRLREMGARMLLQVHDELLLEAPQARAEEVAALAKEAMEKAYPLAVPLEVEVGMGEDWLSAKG

How did the pKd ([1]; IT50 52.5C) turn out when “TTCTCGGTTGGTCTCTGGCGGAGCACACCGGGGGGGCTGCGGGCAAGGCGGGTGTCTTGTGTATGATTCGCTTTTCCC [TZ1]” was run?
The pKd was 10.80.

“TTCTCGGTTGGTCTCTGGCGGAGCACGGGAGGGTGTGGAGTGGGTGGCGCGGGCTCTTGTGTATGATTCGCTTTTCCC [TZ36]” was tested. Which pKd ([1]; IT50 51C) did it give?
Its pKd is 10.70.

How did the pKd ([1]; printed as >>500, IT50 41C) turn out when “TTCTCGGTTGGTCTCTGGCGGAGCACGTCGGGGGGGCCCTGGGGACGGGCAGGCGTCTTGTGTATGATTCGCTTTTCCC [TZ26]” was run?
Its pKd is under 9.30.

“TTCTCGGTTGGTCTCTGGCGGAGCACGTCGGGGGGGCGTTGGGACGGGCAGACGTCTTGTGTATGATTCGCTTTTCCC [TZ13]” was tested. Which pKd ([1]; IT50 58.5C) did it give?
Its pKd is 10.77.

With “TTCTCGGTTGGTCTCTGGCGGAGCATACACGACGTCATTCTAGCGTTTTGACGTCTTGTGTATGATTCGCTTTTCCC [ligand 22 (TQH22) / TZ3]” as the sequence, how does the pKd ([1]; as TZ3, IT50 52C) read?
Its pKd is 11.05.

How did the pKd ([1]; IT50 46C) turn out when “TTCTCGGTTGGTCTCTGGCGGAGCGAACATACGAAGACATTCCAACGTTTTGTCTTGTGTATGATTCGCTTTTCCC [TZ69]” was run?
The pKd was 10.70.

With “TTCTCGGTTGGTCTCTGGCGGAGCGAAGCATACGAAGACATTCCAACGTTTTGTCTTGTGTATGATTCGCTTTTCCC [TZ8]” as the sequence, how does the pKd ([1]; IT50 52C) read?
Its pKd is 11.30.

With “TTCTCGGTTGGTCTCTGGCGGAGCGAAGCATACGAAGACATTCCAACGTTTTGTCTTGTGTATGATTCGCTTTTCCC [TZ54]” as the sequence, how does the pKd ([1]; IT50 52C) read?
The pKd was 10.64.

How did the pKd ([1]; printed as >>1000, IT50 <<35C) turn out when “TTCTCGGTTGGTCTCTGGCGGAGCGCGAGGGTGTGGCGTGGGTGGCGCGATCTTGTGTATGATTCGCTTTTCCC [TZ2]” was run?
The pKd was under 9.00.

With “TTCTCGGTTGGTCTCTGGCGGAGCGGATCAGACACGAGACATTGCGGACTTTTGTCTTGTGTATGATTCGCTTTTCCC [TZ9]” as the sequence, how does the pKd ([1]; IT50 52C) read?
The pKd was 11.30.

What does the source list for “TTCTCGGTTGGTCTCTGGCGGAGCNNNNNNNNNNNNNNNNNNNNNNNNNNNNNNTCTTGTGTATGATTCGCTTTTCCC [enriched Taq pool round 12]”?
pKd ([2]; cross binding, room temp): 9.70; pKd ([3]; Taq binding buffer, room temp): 8.46

“TTCTCGGTTGGTCTCTGGCGGAGCNNNNNNNNNNNNNNNNNNNNNNNNNNNNNNTCTTGTGTATGATTCGCTTTTCCC [enriched Tth pool round 10]” was tested. Which pKd ([2]; Tth binding buffer, room temp) did it give?
The pKd was 8.30.

And the pKd ([3]; cross binding, saturates at about 50%)?
The pKd was 9.52.

How did the pKd ([2]; 50 mM Bicine pH 8.3, 90 mM KCl, 3.5 mM Mn(OAc)2, room temp) turn out when “TTCTCGGTTGGTCTCTGGCGGAGCNNNNNNNNNNNNNNNNNNNNNNNNNNNNNNTCTTGTGTATGATTCGCTTTTCCC [random ssDNA pool]” was run?
The pKd was 7.15.
